Reference: US20230330254A1 (Regeneron Pharmaceuticals, Inc., priority 2022, published 2023)

Tests used:
HEK293/CRE-Luc cells = test: Flow cytometry cell binding, HEK293/CRE-Luc control cells (Example 18); parameters: species or system human; conditions: Table 30, control cells lacking GLP1R; for EC50: no unit printed in table (text reads values as M); for HEK293/CRE-Luc Flow S/N: signal to noise
Procedure: GLP1R agonist linker payloads were conjugated to anti-GLP1R antibodies via N-terminal heavy or light chain Glutamine (Q) tags. Several resulting anti-GLP1R-GLP1R agonist antibody tethered drug conjugates (ATDCs) and their unconjugated parental antibodies were tested for cell-based binding activity. The cell surface binding of the anti-GLP1R ATDCs to human GLP1R (HEK293/CRE-Luc/hGLP1R), cynomolgus GLP1R (HEK293/CRE-Luc/mfGLP1R), and control cells lacking expression of GLP1R (HEK293/CRE-Luc) was assessed via flow cytometry. For the assay, 61,000-230,000 cells were suspended in PBS, w/2% FBS and 0.2% sodium azide (staining buffer) in 96 well V-bottom plates and incubated for 30 minutes at 4° C. with three-fold serial dilutions of the anti-GLP1R ATDCs, non-binding control ATDCs, or unconjugated anti-GLP1R antibodies. The last well in each row of the plate served as a blank control containing only secondary antibody and was plotted as a continuation of the 3-fold serial dilution. […] Cells were then washed once and stained with a cell viability dye (Live/dead Fixable Green Dead Cell Stain Kit for 488 nm excitation, Molecular Probes cat #L34970) at 1× in PBS for 20 minutes at 4° C. Cells were washed once in staining buffer, fixed for 20 minutes at 4° C. using a 50% solution of Cytofix (BD Biosciences, Cat #554655) diluted in PBS, and washed again in staining buffer. Samples were filtered through Pall 96 well plate PP/PE mesh filter system and collected in Costar 96 well plate. Samples were run on the iQue flow cytometer (Intellicyte) and results were analyzed using Forecyte analysis software (Intellicyte) to calculate the mean fluorescent intensity (MFI) after gating for live cells. EC50 values were determined using a four-parameter logistic equation over a 10-point dose response curve (GraphPad Prism). The signal to noise (S/N) was determined by taking the ratio of the highest MFI on the dose response curve to the MFI in the secondary alone wells.

[1] = target: T1, hGLP1R-MMH (N-terminal region of human GLP1R) (Homo sapiens, UniProt P43220); test: Biacore binding kinetics (surface plasmon resonance); conditions: 25° C.; for Ka: association rate
T1 construct: the N-terminal ectodomain of human GLP1R expressed with a myc-myc hexahistidine tag
Procedure: The equilibrium dissociation constant (KD) for GLP1R binding to different unconjugated GLP1R monoclonal antibodies (mAbs) or to GLP1R antibody tethered drug conjugates (ATDCs) was determined using a real-time surface plasmon resonance biosensor using a Biacore 3000, Biacore S200, Biacore 4000, Biacore T-200, or a Sierra Sensor MASS-2 instrument. All binding studies were performed in 10 mM HEPES, 150 mM NaCl, 3 mM EDTA, and 0.05% v/v Surfactant Tween-20, pH 7.4 (HBS-ET) running buffer at 25° C. The Biacore CM5 sensor chip surface was first derivatized by amine coupling with human Fc specific mouse mAb (REGN2567) to capture different GLP1R mAbs or ATDCs. Different concentrations (100, 90, 33.3, 30, 11.1, 10, 3.7, 3.3 and 1.1 nM) of the N-terminal region of human GLP1R expressed with a myc-myc-hexahistidine tag (“hexahistidine tag” disclosed as SEQ ID NO: 441) (hGLP1R-MMH) prepared in HBS-ET running buffer were injected over the GLP1R mAb captured surface for 240 or 300 sec at a flow rate of 50 μL/min and their dissociation in HBS-ET running buffer was monitored for 10 minutes. At the end of each cycle, the GLP1R mAb or ATDC capture surface was regenerated using a 10 sec injection of 20 mM phosphoric acid.
The association rate (ka) and dissociation rate (kd) were determined by fitting the real-time binding sensorgrams to a 1:1 binding model with mass transport limitation using Scrubber 2.0c curve-fitting software. Binding dissociation equilibrium constant (KD) and dissociative half-life (t %2) were calculated from the kinetic rates as: […]

human GLP1R = target: T2, human GLP1R (Homo sapiens, UniProt P43220); test: Flow cytometry cell binding, HEK293/CRE-Luc/hGLP1R (Example 18); conditions: Table 30, no unit printed in table (text b1840 reads values as M), experiments A, C, D
T2 construct: engineered to express full-length human GLP1R, cynomolgus GLP1R; expressed in transfected cells; host or cells: HEK293/CRE-Luc
Procedure: GLP1R agonist linker payloads were conjugated to anti-GLP1R antibodies via N-terminal heavy or light chain Glutamine (Q) tags. […] The cell surface binding of the anti-GLP1R ATDCs to human GLP1R (HEK293/CRE-Luc/hGLP1R), cynomolgus GLP1R (HEK293/CRE-Luc/mfGLP1R), and control cells lacking expression of GLP1R (HEK293/CRE-Luc) was assessed via flow cytometry. […] The last well in each row of the plate served as a blank control containing only secondary antibody and was plotted as a continuation of the 3-fold serial dilution. […] Samples were filtered through Pall 96 well plate PP/PE mesh filter system and collected in Costar 96 well plate. Samples were run on the iQue flow cytometer (Intellicyte) and results were analyzed using Forecyte analysis software (Intellicyte) to calculate the mean fluorescent intensity (MFI) after gating for live cells. EC50 values were determined using a four-parameter logistic equation over a 10-point dose response curve (GraphPad Prism). The signal to noise (S/N) was determined by taking the ratio of the highest MFI on the dose response curve to the MFI in the secondary alone wells.

T1 sequence (P43220 24-139 limits assumed): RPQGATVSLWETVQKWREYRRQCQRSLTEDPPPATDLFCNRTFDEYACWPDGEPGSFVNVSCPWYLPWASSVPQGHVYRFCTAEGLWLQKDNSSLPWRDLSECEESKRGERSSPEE
T2 sequence (P43220 24-463): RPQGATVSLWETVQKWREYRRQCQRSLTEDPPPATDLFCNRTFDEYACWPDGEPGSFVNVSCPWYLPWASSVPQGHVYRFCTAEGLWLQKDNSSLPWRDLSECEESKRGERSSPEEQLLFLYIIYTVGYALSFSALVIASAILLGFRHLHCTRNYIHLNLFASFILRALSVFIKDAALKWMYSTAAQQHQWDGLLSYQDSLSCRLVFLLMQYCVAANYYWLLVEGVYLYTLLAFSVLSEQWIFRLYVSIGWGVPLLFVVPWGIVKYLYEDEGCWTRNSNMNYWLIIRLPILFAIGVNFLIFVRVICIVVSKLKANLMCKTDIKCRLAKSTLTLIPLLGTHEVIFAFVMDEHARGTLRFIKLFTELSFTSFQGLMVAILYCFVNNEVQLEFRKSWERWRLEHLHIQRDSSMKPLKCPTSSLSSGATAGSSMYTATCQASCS

Molecule | EC50 (HEK293/CRE-Luc cells) | HEK293/CRE-Luc Flow S/N (HEK293/CRE-Luc cells) | Ka ([1]; hGLP1R-MMH) | dissociation rate constant (kd) ([1]; hGLP1R-MMH) | EC50 (human GLP1R) | 90 nM hGLP1R.mmh Bound ([1]; antibody captured on anti-human Fc surface, 90 nM hGLP1R-MMH) | Kd ([1]; hGLP1R-MMH, calculated from the kinetic rates)
REGN8051 (antibody, V domains shown) VH: QVQLVESGGGVGQPGRSLRLSCAASGFTFSRNAMHWVRQAPGKGLEWVAVISYDGSNKHYADSVKGRFTISRDNSKNTLYLEMNSLRVEDTAVYYCAKGGIPFDYWGQGTLVTVSS VL: DIVMTQSPLSSPVTLGQPASISCRSSQSLVHFDGNTYLSWLHQRPGQPPRLLIYKISNRFSGVPDRFSGSGAGTDFTLKISRVEPEDVGVYYCMHATQFPYTFGQGTKLEIK | > 100 nM | 18.0 | 61900 M⁻¹ s⁻¹ | 0.000211 s⁻¹ | – | – | –
H4H30439P (antibody, V domains shown) VH: QVQLVESGGGVVQPGRSLRLSCAASGFTFSGYGIHWVRQAPGKGLVWVAVIWYDGSFKYYADSVKGRFTISRDNSKNTLYLQMNSLRAEDTAVYYCARGDSSSSGRYYYYGMDVWGQGTTVTVSS VL: DIQMTQSPSSLSASVGDRVTITCRASQGIRNDLGWYQQKPGTAPKRLIFAASSLQSGVPSRFSGSGSGTEFTLTISSLQPEDFATYYCLQHNNYPPTFGGGTKVEIK | – | – | 277000 M⁻¹ s⁻¹ | 0.000189 s⁻¹ | 0.769 nM | 152.4 RU | 0.681 nM
H2aM30341N (antibody, V domains shown) VH: QVQLQQWGAGLLKPSETLSLTCAVYGGSFSGYYWSWIRQPPGKGLEWIGEINHAGSTNYNPSLKSRITISVDTSKNQFSLKLSSVTAADTAVYYCARGWYYGSGSYHRNWFDPWGQGTLVTVSS VL: EIVLTQSPGTLSLSPGERATLSCRASQSVYYSYLAWYQQKPGQAPRLLIYGASNRATGIPDRFSGSGSGTDFTLTISRLEPEDFAVYYCQQYGNSPWTFGQGTKVEIK | > 100 nM | 11.8 | 224000 M⁻¹ s⁻¹ | 7.74e-05 s⁻¹ | – | – | –
